Reference: patent publication US20210324359A1, “USE OF GRAM-NEGATIVE LYSIN-ANTIMICROBIAL PEPTIDE (AMP) POLYPEPTIDE CONSTRUCTS IN TREATING ENDOCARDITIS” (priority 2020, published 2021)
Values joined by “and” are separate entries in the source; they are usually repeats but may differ in a detail not shown here. Identical values can stand only once.

Experiments:
Format in all cases: cell-based, Pseudomonas aeruginosa
[1] = system: carbapenem-resistant P. aeruginosa strains; assay: Resensitization of carbapenem-resistant strains, combinations with imipenem or meropenem (Tables 18-22)
[2] = system: outer membrane of P. aeruginosa (CFS 1292); assay: N-phenyl-1-napthylamine (NPN) uptake assay, outer membrane destabilization (Table 15); conditions: NPN fluorescence, buffer = 100, lysin 100 μg/well
Description: The ability of gram-negative lysins to destabilize the outer membrane of P. aeruginosa was evaluated through the use of an N-phenyl-1-napthylamine (NPN) uptake assay. […] NPN was added to a final concentration of […]. […] Changes in fluorescence were recorded (excitation 1=350 nm; emission 1=420 nm) over two hours.

[3] = system: P. aeruginosa isolates; assay: MIC against a range of isolates in CAA + […] human serum (Table 11)
[4] = system: P. aeruginosa strains; assay: Checkerboard synergy with meropenem in 25% CAA and […] human serum (Table 16); conditions: for FICI value (Run #1), with meropenem / FICI value (Run #2), with meropenem: 25% CAA and […] human serum

B1: GN121: variant lysin (SEQ ID NO: 175), also disclosed in WO 2019/118632 (protein)
chain: MTYTLSKRSLDNLKGVHPDLVAVVHRAIQLTPVDFAVIEGLRSVSRQKELVAAGASKTMNSRHLTGHAVDLAAYVNGIRWDWPLYDAIAVAVKAAAKELGVAIVWGGDWTTFKDGPHFELDRSKYRRKKTRKRLKKIGKVLKWI
B1 was tested, and the “resensitization to carbapenems in synergistic combinations” value ([1]; imipenem (IPM) and meropenem (MEM), carbapenem-resistant isolates) was “reductions of IPM and MEM MICS to below breakpoint values”, the “lysin MIC, Combination” value ([1]; in combination with imipenem, isolate PA19) was 0.125 µg/mL and the “lysin MIC, Combination” value ([1]; in combination with imipenem, isolate PA20) was 0.25 µg/mL. The “lysin MIC, Combination” value ([1]; in combination with imipenem, isolate PA21) was 0.125 µg/mL, the “lysin MIC, Combination” value ([1]; in combination with imipenem, isolate PA22) was 0.25 µg/mL and the “lysin MIC, Combination” value ([1]; in combination with imipenem, isolate PA23) was 0.25 µg/mL. For the same molecule, the “lysin MIC, Combination” value ([1]; in combination with imipenem, isolate PA24) was 0.125 µg/mL, the “lysin MIC, Combination” value ([1]; in combination with meropenem, isolate PA19) was 0.5 µg/mL and the “lysin MIC, Combination” value ([1]; in combination with meropenem, isolate PA20) was 0.5 µg/mL. The “lysin MIC, Combination” value ([1]; in combination with meropenem, isolate PA22) was 0.25 µg/mL, the “lysin MIC, Combination” value ([1]; in combination with meropenem, isolate PA23) was 0.5 µg/mL and the “lysin MIC, Combination” value ([1]; in combination with meropenem, isolate WC-452) was 0.06 µg/mL. The “MIC, Alone” value ([1]; isolate PA19) was 1 µg/mL and 2 µg/mL, the “MIC, Alone” value ([1]; isolate PA20) was 1 µg/mL and 2 µg/mL and the “MIC, Alone” value ([1]; isolate PA21) was 1 µg/mL. For the same molecule, the “MIC, Alone” value ([1]; isolate PA22) was 2 µg/mL and 1 µg/mL, the “MIC, Alone” value ([1]; isolate PA23) was 1 µg/mL and 2 µg/mL and the “MIC, Alone” value ([1]; isolate PA24) was 1 µg/mL. For the same molecule, the “MIC, Alone” value ([1]; isolate WC-452) was 1 µg/mL, the FICI ([1]; lysin + imipenem, isolate PA19) was 0.155 and the FICI ([1]; lysin + imipenem, isolate PA20) was 0.265. The FICI ([1]; lysin + imipenem, isolate PA21) was 0.155, the FICI ([1]; lysin + imipenem, isolate PA22) was 0.188 and the FICI ([1]; lysin + imipenem, isolate PA23) was 0.257. For the same molecule, the FICI ([1]; lysin + imipenem, isolate PA24) was 0.155, the FICI ([1]; lysin + meropenem, isolate PA19) was 0.281 and the FICI ([1]; lysin + meropenem, isolate PA20) was 0.313. It also gave an FICI ([1]; lysin + meropenem, isolate PA21) of 0.188, an FICI ([1]; lysin + meropenem, isolate PA22) of 0.313 and an FICI ([1]; lysin + meropenem, isolate PA23) of 0.375. For the same molecule, the FICI ([1]; lysin + meropenem, isolate PA24) was 0.156, the FICI ([1]; lysin + meropenem, isolate WC-452) was 0.123 and the “% RFU” value ([2]; 5 minutes) was 370 % RFU. For the same molecule, the “% RFU” value ([2]; 10 minutes) was 500 % RFU, the “% RFU” value ([2]; 20 minutes) was 528 % RFU and the “% RFU” value ([2]; 40 minutes) was 530 % RFU. The “% RFU” value ([2]; 60 minutes) was 565 % RFU, the “% RFU” value ([2]; 100 minutes) was 557 % RFU and the “activity against P. aeruginosa isolates in human serum or SURVANTA” value ([3]; Tables 11 and 12) was “active against a variety of P. aeruginosa isolates”. The “MIC, CAA + […] Human Serum” value ([3]; strain CFS 1109 (ATCC 17646)) was 0.5 µg/mL, the “MIC, CAA + […] Human Serum” value ([3]; strain CFS 1292) was 1 µg/mL and the “MIC, CAA + […] Human Serum” value ([3]; strain CFS1539 (PA1)) was 0.5 µg/mL. For the same molecule, the “MIC, CAA + […] Human Serum” value ([3]; strain CFS 1540 (PA2)) was 0.5 µg/mL, the “MIC, CAA + […] Human Serum” value ([3]; strain CFS 1541 (PA3)) was 0.5 µg/mL and the “MIC, CAA + […] Human Serum” value ([3]; strain CFS 1557 (PA19)) was 2 µg/mL. For the same molecule, the “MIC, CAA + […] Human Serum” value ([3]; strain CFS 1558 (PA20)) was 0.5 µg/mL, the “MIC, CAA + […] Human Serum” value ([3]; strain CFS 1559 (PA21)) was 1 µg/mL and the “MIC, CAA + […] Human Serum” value ([3]; strain CFS 1560 (PA22)) was 1 µg/mL. The “MIC, CAA + […] Human Serum” value ([3]; strain CFS 1561 (PA23)) was 1 µg/mL, the “MIC, CAA + […] Human Serum” value ([3]; strain CFS 1562 (PA24)) was 1 µg/mL and the “MIC, CAA + […] Human Serum” value ([3]; strain CFS 1596 (PA26)) was 0.5 µg/mL. The “MIC, CAA + […] Human Serum” value ([3]; strain CFS 1597 (PA27)) was 0.5 µg/mL, the “MIC, CAA + […] Human Serum” value ([3]; strain CFS 1669 (PA41)) was 1 µg/mL and the “MIC, CAA + […] Human Serum” value ([3]; strain CFS 1674 (PA46)) was 0.5 µg/mL. For the same molecule, the “MIC, CAA + […] Human Serum” value ([3]; strain CFS 1675 (PA47)) was 0.5 µg/mL, the “MIC, CAA + […] Human Serum” value ([3]; strain CFS 1766 (ATCC 27853)) was 2 µg/mL and the synergy with meropenem ([4]; FICI less than or equal to 0.5 = potent synergy) was “exhibited synergy with meropenem”. For the same molecule, the “FICI value (Run #1), with meropenem” value ([4]; strain CFS 1292) was 0.25, the “FICI value (Run #2), with meropenem” value ([4]; strain CFS 1292) was 0.292 and the “FICI value (Run #1), with meropenem” value ([4]; strain CFS 1557 (PA19)) was 0.375. The “FICI value (Run #2), with meropenem” value ([4]; strain CFS 1557 (PA19)) was 0.427, the “FICI value (Run #1), with meropenem” value ([4]; strain CFS 1558 (PA20)) was 0.125 and the “FICI value (Run #2), with meropenem” value ([4]; strain CFS 1558 (PA20)) was 0.156. The “FICI value (Run #2), with meropenem” value ([4]; strain CFS 1559 (PA21)) was 0.229, the “FICI value (Run #2), with meropenem” value ([4]; strain CFS 1560 (PA22)) was 0.313 and the “FICI value (Run #2), with meropenem” value ([4]; strain CFS 1561 (PA23)) was 0.198. The “FICI value (Run #2), with meropenem” value ([4]; strain CFS 1562 (PA24)) was 0.214 and the “FICI value (Run #2), with meropenem” value ([4]; strain CFS 1766 (ATCC 27853)) was 0.229.
